These results are taken from US20180305695.

The series concerns the target von Willebrand factor A1 domain (Homo sapiens) (UniProt P04275). In words: SPR. The note with it: 37 C.

The sequence “CGTGACCGANGAGCACCTAACNGGTCTCAACGNTGGAGGTCACG [vWF2-DsDsDs]” displayed a dissociation constant (Kd) (n = Ds at 3 positions, likely pM (protein 0.078-5 nM)) of 7.49e+07 pM. This lies in the double-digit micromolar range.

On to “CGCGGCCGANGAGCACCGAAGGTCTCAACGNTGGAGGCCGCGCGCGTAGCG [vWF2-DsDsDs-2mhGC]”, for which, under “n = Ds, likely pM (protein 0.078-5 nM)”, the Kd stood at 6.13e+07 pM.

As for “CGAGGCTCCCCANCTTTCGCCNACANCCGAGGGAGCCTCGCGCGTAGCG [vWF1-DsDsDs-mhGC]”, under “n = Ds at 3 positions, phosphate buffer 155 mM NaCl, 0.05% NP-40, koff 0.00159 1/s, printed as GCmh”, the dissociation constant (Kd) amounted to 780 pM.

In turn, “TGAGACTCCCCANCTTTCGCCNACANCCGAGGGAGTCTCA [vWF1-DsDsDs]” came in with a dissociation constant (Kd) (n = Ds (7-(2-thienyl)-3H-imidazo[4,5-b]pyridin-3-yl) at 3 positions, phosphate buffer 155 mM NaCl, 0.05% NP-40) of 1030 pM.

As for “CGAGGCTCCCCANCTTTCGCCNACANCCGAGGGAGCCTCG [vWF1-DsDsDs-GC]”, the Kd (n = Ds at 3 positions, phosphate buffer 155 mM NaCl, 0.05% NP-40) was 1080 pM.

Usually Kd stands for a measure of binding affinity in units of concentration. Read a high Kd as weaker binding.
